According to US12545707 (UNIVERSITY OF DELAWARE, dated 2026):
*: point of attachment. TAMRA = 5(6)-carboxytetramethylrhodamine amide on Lys NZ; Butanoyl(4-maleimido) = O=C1C=CC(=O)N1CCCC(=O)*; NBD = O=[N+]([O-])c1ccc(*)c2nonc12

Assays:
[1] = target: the molecule itself; assay: self-association of the peptide into a homotetrameric coiled coil bundle; TEM, cryoTEM and SANS of the linked bundle chains
Procedure: Transmission Electron Microscopy (TEM): Carbon-coated 200 mesh copper grids (CF200-Cu, Electron Microscopy Sciences, Inc.) were freshly treated by glow discharge using a plasma cleaner (PDC-32G, Harrica Plasma, Inc.) at low level for 20 seconds. Then, 4 µL sample solution was dropped on the grid. After 1 min, the remaining liquid was blotted from the edge of the grid using filter paper. The grid was allowed to air-dry for 10 min before TEM observation on FEI TALOS™ F200C microscope. For negative staining, 6 µL aqueous solution of phosphotungstic acid (2 w/v %, pH 6) was applied to the dried grid and incubated for 15-30 seconds. Then the grid was blotted with filter paper. The stained grid was allowed to sit for 10 min before TEM observation.

[2] = target: the molecule itself; assay: self-association of the dye-labelled peptide into a tetrameric bundle; STORM imaging of the rods
Procedure: With these rigid-rod molecules, the local amino acid sequence along the rods is determined via computational design. With this specified sequence, robust bundle physical assembly, and subsequent covalent polymer formation, one can display desired functionality locally within the polymer chain. High-resolution fluorescence microscopy provides the tool for observation of rigid-rod polymers synthesized with fluorophores attached to specific lysine side chains. Rods with targeted lengths of ~50 nm were first assembled using the same parent peptides as described in FIG. 33 with the short rod termini consisting of bundles displaying thiol functionality (FIG. 33A, more description in Methods). The maleimide-terminated peptides used in the short rod syntheses were functionalized with a desired fluorescent dye (rhodamine; nitrobenzofurazan (NBD); see FIG. 35A). […] After short rod synthesis with desired dye incorporation, separate populations of short red rods and short green rods were mixed together along with individual bundles with maleimide termini and no dye (FIG. 33A and FIG. 35A) in order to link the short, dyed rods together into longer rigid-rod chains. […] The sub-optical wavelength resolution of the STORM technique (stochastic optical reconstruction microscopy) allows clear observation of the ~50 nm long, individual rod segments within final, longer rods. […]

| Protein | binding result [1] | binding result [2] |
| --- | --- | --- |
| {Butanoyl(4-maleimido)}-DEKIKNMADQIKHMAWMIDRMAEKIDREA-NH2 (not fully specified (residue 1), Four copies associate non-covalently into an antiparallel homotetrameric coiled coil bundle; also called P622-A6-1; maleimide-containing peptide) [Peptide 1 (maleimide-functionalized bundle-forming peptide, SEQ ID NO: 3)] | binds |  |
| H-CDEEIRRMAEEIRQMAERIQQMAEQIQQEA-NH2 (not fully specified, Four copies associate non-covalently into an antiparallel homotetrameric coiled coil bundle; also called 4459a-C; thiol-containing peptide) [Peptide 2 (bundle-forming peptide with N-terminal cysteine, SEQ ID NO: 1)] | binds |  |
| {Butanoyl(4-maleimido)}-DEKIKNMADQIKHMAWMIDRMAEK(NBD)IDREA-NH2 (not fully specified (residue 1), also called green dye peptide) [Peptide 3 (SEQ ID NO: 3, maleimide N-terminus, nitrobenzofurazan dye on a lysine side chain)] |  | binds |
| {Butanoyl(4-maleimido)}-DEKIKNMADQIKHMAWMIDRMAEK(TAMRA)IDREA-NH2 (not fully specified (residue 1), also called red dye peptide) [Peptide 4 (SEQ ID NO: 3, maleimide N-terminus, tetramethylrhodamine dye on a lysine side chain)] |  | binds |
